Test results published in patent publication US20200017862.

Assays:
[1] = biological target: LI PCNA (His-tagged mutant Xenopus PCNA), P18248
[2] = biological target: LIPK PCNA (L126A-I128A-P253A-K254A PCNA, His-tagged), P18248
[3] = biological target: WT His-tagged PCNA (recombinant Xenopus PCNA), P18248
[4] = biological target: PK PCNA (P253A-K254A PCNA, His-tagged), P18248
[5] = biological target: PCNA, endogenous, in Xenopus egg extract (HSS), P18248
PCNA, endogenous, in Xenopus egg extract (HSS), P18248, sequence (P18248 whole entry): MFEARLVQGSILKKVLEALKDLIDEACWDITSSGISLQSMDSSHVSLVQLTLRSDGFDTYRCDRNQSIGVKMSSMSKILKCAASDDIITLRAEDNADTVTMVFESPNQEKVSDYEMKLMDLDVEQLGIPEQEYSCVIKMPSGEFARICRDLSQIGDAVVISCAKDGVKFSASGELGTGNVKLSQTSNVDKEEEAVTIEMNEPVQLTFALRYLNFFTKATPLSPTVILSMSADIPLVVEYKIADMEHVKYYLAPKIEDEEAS

WT His-tagged PCNA (recombinant Xenopus PCNA), P18248, sequence (P18248 whole entry): as above
LI PCNA (His-tagged mutant Xenopus PCNA), P18248, sequence (P18248 other isoform, or with tags, fused parts or gaps mutant): as the sequence (P18248 whole entry) above, with L126A, I128A counted along it
LIPK PCNA (L126A-I128A-P253A-K254A PCNA, His-tagged), P18248, sequence (P18248 whole entry L126A/I128A/P253A/K254A): as the sequence (P18248 whole entry) above, with L126A, I128A, P253A, K254A counted along it
PK PCNA (P253A-K254A PCNA, His-tagged), P18248, sequence (P18248 whole entry P253A/K254A): as the sequence (P18248 whole entry) above, with P253A, K254A counted along it

B1: GST-APE2 (recombinant GST-tagged Xenopus APE2) (protein)
chain: MKIVSWNINGIRATRVGLKETLDSLDADIICLQETKVTRDLLDEPSAIVEGYNSYFSFSRVRSGYSGVATFCKSSTTPQAAEEGLSGVFCNRTGSVGCYGNTEQFLEEELQSLDQEGRAVLTQHRILNCEDKEETLTVINVYCPRADPEKPERKTYKLRFYHLLQTRAEAILQNGGHVIILGDVNTSHRPLDHCDPTDLETFEENPGRQWLNQFLGDPIPSQKGDSETVMPPSAGSGLFYDSFRYFHPTQKNAFTCWCSASGARQTNYGTRIDYILGNRELVESEFLDSVIMPEVEGSDHCPVKAFMKCQPIAANKCPPLCTKYLPEFAGRQQKLLQFLVKKENTLGNTTEESSELTGTPSFTEGADISTVRKRPSDKLNSTSKKKSKIVTKNGQGNLLSFFKPERQKLTMATECNPIEVPICKKEKTVQKDLQPATPAVKYNKPQTAFWKSLLKGPPPPPNCKGHSEPCVLRTVKKAGPNCGRQFYVCARPEGHSSNPQARCNFFLWLTKKAGCED
exonuclease activity on FAM-labeled gapped dsDNA (Type I resected products), purified proteins in vitro [1]: The gapped dsDNA was catalyzed into Type I resected products by recombinant APE2 with the presence of WT PCNA, but not LIPK PCNA, LI PCNA, or PK PCNA | exonuclease activity on FAM-labeled gapped dsDNA (Type I resected products), purified proteins in vitro [2]: The gapped dsDNA was catalyzed into Type I resected products by recombinant APE2 with the presence of WT PCNA, but not LIPK PCNA, LI PCNA, or PK PCNA | exonuclease activity on FAM-labeled gapped dsDNA (Type I resected products), purified proteins in vitro [3]: The gapped dsDNA was catalyzed into Type I resected products by recombinant APE2 with the presence of WT PCNA, but not LIPK PCNA, LI PCNA, or PK PCNA | exonuclease activity on FAM-labeled gapped dsDNA (Type I resected products), purified proteins in vitro [4]: The gapped dsDNA was catalyzed into Type I resected products by recombinant APE2 with the presence of WT PCNA, but not LIPK PCNA, LI PCNA, or PK PCNA

B2: C470A Myc-APE2 (protein)
chain: MKIVSWNINGIRATRVGLKETLDSLDADIICLQETKVTRDLLDEPSAIVEGYNSYFSFSRVRSGYSGVATFCKSSTTPQAAEEGLSGVFCNRTGSVGCYGNTEQFLEEELQSLDQEGRAVLTQHRILNCEDKEETLTVINVYCPRADPEKPERKTYKLRFYHLLQTRAEAILQNGGHVIILGDVNTSHRPLDHCDPTDLETFEENPGRQWLNQFLGDPIPSQKGDSETVMPPSAGSGLFYDSFRYFHPTQKNAFTCWCSASGARQTNYGTRIDYILGNRELVESEFLDSVIMPEVEGSDHCPVKAFMKCQPIAANKCPPLCTKYLPEFAGRQQKLLQFLVKKENTLGNTTEESSELTGTPSFTEGADISTVRKRPSDKLNSTSKKKSKIVTKNGQGNLLSFFKPERQKLTMATECNPIEVPICKKEKTVQKDLQPATPAVKYNKPQTAFWKSLLKGPPPPPNCKGHSEPAVLRTVKKAGPNCGRQFYVCARPEGHSSNPQARCNFFLWLTKKAGCED
3'-5' SSB end resection of FAM-SSB in APE2-depleted HSS [5]: VVT APE2 but not C470A APE2 rescued the deficiency of SSB end resection of FAM-SSB in APE2-depleted HSS | SSB-induced Chk1 phosphorylation in APE2-depleted HSS [5]: WT, but not C470A, APE2 was found to rescue the SSB-induced Chk1 phosphorylation in APE2-depleted HSS | recruitment of RPA32, ATR, ATRIP, TopBP1, and Rad9 to SSB plasmid in APE2-depleted HSS [5]: WT APE2, but not C470A APE2, rescued the recruitment of RPA32, ATR, ATRIP, TopBP1, and Rad9 to SSB in APE2-depleted HSS

B3: G483A-R484A Myc-APE2 (protein)
chain: MKIVSWNINGIRATRVGLKETLDSLDADIICLQETKVTRDLLDEPSAIVEGYNSYFSFSRVRSGYSGVATFCKSSTTPQAAEEGLSGVFCNRTGSVGCYGNTEQFLEEELQSLDQEGRAVLTQHRILNCEDKEETLTVINVYCPRADPEKPERKTYKLRFYHLLQTRAEAILQNGGHVIILGDVNTSHRPLDHCDPTDLETFEENPGRQWLNQFLGDPIPSQKGDSETVMPPSAGSGLFYDSFRYFHPTQKNAFTCWCSASGARQTNYGTRIDYILGNRELVESEFLDSVIMPEVEGSDHCPVKAFMKCQPIAANKCPPLCTKYLPEFAGRQQKLLQFLVKKENTLGNTTEESSELTGTPSFTEGADISTVRKRPSDKLNSTSKKKSKIVTKNGQGNLLSFFKPERQKLTMATECNPIEVPICKKEKTVQKDLQPATPAVKYNKPQTAFWKSLLKGPPPPPNCKGHSEPCVLRTVKKAGPNCAAQFYVCARPEGHSSNPQARCNFFLWLTKKAGCED
SSB-induced Chk1 phosphorylation in APE2-depleted HSS [5]: G483A-R484A APE2, which is deficient in interaction with ssDNA and PCNA CTM motif (FIGS. 12D and 12E), also failed to rescue the SSB-induced Chk1 phosphorylation in APE2-depleted HSS | hydrogen peroxide-induced Chk1 phosphorylation in APE2-depleted LSS [5]: VVT APE2, but not G483A-R484A APE2, rescued the hydrogen peroxide-induced Chk1 phosphorylation in APE2-depleted LSS system

B4: WT Myc-APE2 (recombinant Myc-tagged Xenopus APE2) (protein)
chain: MKIVSWNINGIRATRVGLKETLDSLDADIICLQETKVTRDLLDEPSAIVEGYNSYFSFSRVRSGYSGVATFCKSSTTPQAAEEGLSGVFCNRTGSVGCYGNTEQFLEEELQSLDQEGRAVLTQHRILNCEDKEETLTVINVYCPRADPEKPERKTYKLRFYHLLQTRAEAILQNGGHVIILGDVNTSHRPLDHCDPTDLETFEENPGRQWLNQFLGDPIPSQKGDSETVMPPSAGSGLFYDSFRYFHPTQKNAFTCWCSASGARQTNYGTRIDYILGNRELVESEFLDSVIMPEVEGSDHCPVKAFMKCQPIAANKCPPLCTKYLPEFAGRQQKLLQFLVKKENTLGNTTEESSELTGTPSFTEGADISTVRKRPSDKLNSTSKKKSKIVTKNGQGNLLSFFKPERQKLTMATECNPIEVPICKKEKTVQKDLQPATPAVKYNKPQTAFWKSLLKGPPPPPNCKGHSEPCVLRTVKKAGPNCGRQFYVCARPEGHSSNPQARCNFFLWLTKKAGCED
3'-5' SSB end resection of FAM-SSB in APE2-depleted HSS [5]: VVT APE2 but not C470A APE2 rescued the deficiency of SSB end resection of FAM-SSB in APE2-depleted HSS | SSB-induced Chk1 phosphorylation in APE2-depleted HSS [5]: WT, but not C470A, APE2 was found to rescue the SSB-induced Chk1 phosphorylation in APE2-depleted HSS | hydrogen peroxide-induced Chk1 phosphorylation in APE2-depleted LSS [5]: VVT APE2, but not G483A-R484A APE2, rescued the hydrogen peroxide-induced Chk1 phosphorylation in APE2-depleted LSS system | recruitment of RPA32, ATR, ATRIP, TopBP1, and Rad9 to SSB plasmid in APE2-depleted HSS [5]: WT APE2, but not C470A APE2, rescued the recruitment of RPA32, ATR, ATRIP, TopBP1, and Rad9 to SSB in APE2-depleted HSS
